In patent US20100260668A1 (published 2010) one finds EC50 data, which are given here for eleven molecules.

The term EC50 denotes the midpoint of the concentration-response curve. Read a low EC50 as greater potency.

The target of assay [1] is T1, RON (MSP Receptor ECD-His tag) (UniProt Q04912 25-957, limits assumed).
T1 construct: extracellular domain; Bought reagent
Briefly: Direct Bind ELISA, antigen on plate; C-terminal VD. Background: In an ELISA, binding on a coated surface is turned into a signal by an enzyme label.
Method: (§1) Enzyme Linked Immunosorbent Assays to screen for antibodies that bind a desired target antigen were performed as follows. […] Plates were washed four times with PBS containing 0.02% Tween 20. Plates were blocked by the addition of 300 μL/well blocking solution (non-fat dry milk powder, various retail suppliers, diluted to 2% in PBS) for ½ hour at room temperature. Plates were washed four times after blocking with PBS containing 0.02% Tween 20.
(§2) Alternatively, one hundred microliters per well of 10 μg/ml of Histidine (His) tagged desired target antigen (R&D Systems, Minneapolis, Minn.) was added to ELISA plates coated with monoclonal mouse anti-polyHistidine antibody as described above and incubated for 1 hour at room temperature. Wells were washed four times with PBS containing 0.02% Tween 20.
(§3) One hundred microliters of antibody or DVD-Ig preparations diluted in blocking solution as described above was added to the desired target antigen plate or desired target antigen/FC fusion plate or the anti-polyHistidine antibody/His tagged desired target antigen plate prepared as described above and incubated for 1 hour at room temperature. Wells are washed four times with PBS containing 0.02% Tween 20.

The target in the next assay is T2, HGF (HGF-His tag) (UniProt P14210 32-728).
T2 construct: Bought reagent
In words: Direct Bind ELISA, antigen on plate; N-terminal VD.

For assay [2], the target named is T3, ErbB3 (ErbB3 ECD/FC Chimera-His tag) (UniProt P21860 20-643, limits assumed).
T3 construct: extracellular domain; Bought reagent
Briefly: Direct Bind ELISA, antigen on plate.
Method: as §1, §2, §3

The target in assay [3] is T4, PlGF (Placental GF) (UniProt P49763-2 21-149, limits assumed).
T4 construct: Bought reagent
T4 sequence (looked up): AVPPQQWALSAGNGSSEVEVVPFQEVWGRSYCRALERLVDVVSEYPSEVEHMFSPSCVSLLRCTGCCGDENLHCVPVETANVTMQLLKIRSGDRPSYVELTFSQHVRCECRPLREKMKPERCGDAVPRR
In words: Direct Bind ELISA, antigen on plate; C-terminal VD.
Method: as §1, §2, §3

The target in assay [4] is T4, PlGF (Placental GF). Briefly: Direct Bind ELISA, antigen on plate; N-terminal VD.
Assay [5] deals with T5, DLL4 (DLL4 ECD/His tag) (UniProt Q9NR61 27-529, limits assumed).
T5 construct: extracellular domain; Bought reagent
Briefly: Direct Bind ELISA, antigen on plate; N-terminal VD.

In assay [6] the target is T5, DLL4 (DLL4 ECD/His tag). In words: Direct Bind ELISA, antigen on plate; C-terminal VD.
Method: as §1, §2, §3

T2 sequence (P14210 32-728 limits assumed): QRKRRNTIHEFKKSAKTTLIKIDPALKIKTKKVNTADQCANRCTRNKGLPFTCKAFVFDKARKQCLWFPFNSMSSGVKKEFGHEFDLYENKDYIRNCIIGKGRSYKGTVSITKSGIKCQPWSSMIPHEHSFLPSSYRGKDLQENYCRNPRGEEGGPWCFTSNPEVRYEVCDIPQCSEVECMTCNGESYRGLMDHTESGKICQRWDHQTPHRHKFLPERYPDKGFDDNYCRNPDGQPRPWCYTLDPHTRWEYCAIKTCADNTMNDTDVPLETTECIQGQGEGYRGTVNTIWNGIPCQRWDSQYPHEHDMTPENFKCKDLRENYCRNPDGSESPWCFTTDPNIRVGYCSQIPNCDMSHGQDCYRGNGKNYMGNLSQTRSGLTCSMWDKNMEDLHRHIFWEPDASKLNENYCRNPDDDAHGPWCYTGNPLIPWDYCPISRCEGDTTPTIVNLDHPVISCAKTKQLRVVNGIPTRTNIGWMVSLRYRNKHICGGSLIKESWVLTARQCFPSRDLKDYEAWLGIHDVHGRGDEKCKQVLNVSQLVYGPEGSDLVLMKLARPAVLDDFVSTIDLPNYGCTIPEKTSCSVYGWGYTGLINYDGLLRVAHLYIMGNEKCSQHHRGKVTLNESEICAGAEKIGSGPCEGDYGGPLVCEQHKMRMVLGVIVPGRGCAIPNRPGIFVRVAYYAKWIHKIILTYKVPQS

B1: DVD034 (HGF (seq. 1) and RON (seq. 1) DVD-Ig) (bispecific antibody, IgG1)
VH: QVQLVESGGGLVKPGGSLRLSCAASGFTFSDYYMSWIRQAPGKGLEWVSYISSSGSTIYYADSVKGRFTISRDNAKNSLYLQMNSLRAEDTAVYYCARDEYNSGWYVLFDYWGQGTLVTVSSASTKGPEVQLVQSGGGLVKPGGSLRLSCAASGFTFSSYAMHWVRQAPGKGLEWVAVISYDGSNKYYADSVKGRFTISRDNSKNTLYLQMNSLRAEDTAVYYCARFSGWPNNYYYYGMDVWGQGTTVTVSS
VL: DIQMTQSPSSVSASVGDRVTITCRASQGISSWLAWYQQKPGKAPNLLIYEASSLQSGVPSRFGGSGSGTDFTLTISSLQPEDFATYYCQQANGFPWTFGQGTKVEIKRTVAAPDVVMTQSPLSLPVTPGEPASISCRSSQSLLHSNGFNYVDWYLQKPGQSPHLLIYFGSYRASGVPDRFSGSGSGTDFTLKISRVEAEDVGVYYCMQALQTPPWTFGQGTKVEIRR
notes: Outer AB012, inner AB005; HC vector V1 (wild-type hIgG1 constant), LC vector V2 (kappa constant); also called DVD034L
Turning to B1, the EC50 worked out at 116 nM in assay [1] and 0.27 nM with HGF (HGF-His tag).

B2: AB062 (anti-ErbB3 (seq. 1) parent antibody) (antibody, IgG1, V domains shown)
VH: QVQLQQWGAGLLKPSETLSLTCAVYGGSFSGYYWSWIRQPPGKGLEWIGEINHSGSTNYNPSLKSRVTISVETSKNQFSLKLSSVTAADTAVYYCARDKWTWYFDLWGRGTLVTVSS
VL: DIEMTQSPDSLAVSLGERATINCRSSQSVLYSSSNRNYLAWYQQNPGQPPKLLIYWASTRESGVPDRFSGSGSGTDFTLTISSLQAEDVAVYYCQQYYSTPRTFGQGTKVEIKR
notes: HC vector V1 (wild-type hIgG1 constant), LC vector V2 (kappa constant); also called AB062VH; AB062VL
On to B2, for which the EC50 in assay [2] is 1.93 nM.

B3: AB063 (anti-ErbB3 (seq. 2) parent antibody) (antibody, IgG1, V domains shown)
VH: EVQLVESGGGLVQPGGSLRLSCAASGFTFSIYSMNWVRQAPGKGLEWVSYISSSSSTIYYADSVKGRFTISRDNAKNSLYLQMNSLRDEDTAVYYCARDRGDFDAFDIWGQGTMVTVSS
VL: DIQMTQSPSSLSASVGDRVTITCQASQDITNYLNWYQQKPGKAPKLLIYDASNLETGVPSRFSGSGSGTDFTFTISSLQPEDIATYNCQQCENFPITFGQGTRLEIKR
notes: HC vector V1 (wild-type hIgG1 constant), LC vector V2 (kappa constant); also called AB063VH; AB063VL
Molecule B3 displayed an EC50 in assay [2] of 0.28 nM.

B4: DVD259 (VEGF (seq. 1) and PLGF (seq. 1) DVD-Ig) (bispecific antibody, IgG1)
VH: EVQLVESGGGLVQPGGSLRLSCAASGYTFTNYGMNWVRQAPGKGLEWVGWINTYTGEPTYAADFKRRFTFSLDTSKSTAYLQMNSLRAEDTAVYYCAKYPHYYGSSHWYFDVWGQGTLVTVSSASTKGPQVQLQQSGAELVKPGASVKISCKASGYTFTDYYINWVKLAPGQGLEWIGWIYPGSGNTKYNEKFKGKATLTIDTSSSTAYMQLSSLTSEDTAVYFCVRDSPFFDYWGQGTLLTVSS
VL: DIQMTQSPSSLSASVGDRVTITCSASQDISNYLNWYQQKPGKAPKVLIYFTSSLHSGVPSRFSGSGSGTDFTLTISSLQPEDFATYYCQQYSTVPWTFGQGTKVEIKRTVAAPDIVLTQSPDSLAVSLGERVTMNCKSSQSLLNSGMRKSFLAWYQQKPGQSPKLLIYWASTRESGVPDRFTGSGSGTDFTLTISSVQAEDVAVYYCKQSYHLFTFGSGTKLEIKR
notes: HC vector V1 (wild-type hIgG1 constant), LC vector V2 (kappa constant); also called VD259H; VD259L
For B4, the EC50 with PlGF (Placental GF) [3] worked out at 1.3 nM.

B5: DVD260 (PLGF (seq. 1) and VEGF (seq. 1) DVD-Ig) (bispecific antibody, IgG1)
VH: QVQLQQSGAELVKPGASVKISCKASGYTFTDYYINWVKLAPGQGLEWIGWIYPGSGNTKYNEKFKGKATLTIDTSSSTAYMQLSSLTSEDTAVYFCVRDSPFFDYWGQGTLLTVSSASTKGPEVQLVESGGGLVQPGGSLRLSCAASGYTFTNYGMNWVRQAPGKGLEWVGWINTYTGEPTYAADFKRRFTFSLDTSKSTAYLQMNSLRAEDTAVYYCAKYPHYYGSSHWYFDVWGQGTLVTVSS
VL: DIVLTQSPDSLAVSLGERVTMNCKSSQSLLNSGMRKSFLAWYQQKPGQSPKLLIYWASTRESGVPDRFTGSGSGTDFTLTISSVQAEDVAVYYCKQSYHLFTFGSGTKLEIKRTVAAPDIQMTQSPSSLSASVGDRVTITCSASQDISNYLNWYQQKPGKAPKVLIYFTSSLHSGVPSRFSGSGSGTDFTLTISSLQPEDFATYYCQQYSTVPWTFGQGTKVEIKR
notes: HC vector V1 (wild-type hIgG1 constant), LC vector V2 (kappa constant); also called VD260H; VD260L
B5 yielded a half-maximal effective concentration (EC50) with PlGF (Placental GF) [4] of 0.12 nM.

B6: DVD044 (DLL4 (seq. 1) and VEGF (seq. 1) DVD-Ig) (bispecific antibody, IgG1)
VH: EVQLVESGGGLVQPGGSLRLSCAASGFTFTDNWISWVRQAPGKGLEWVGYISPNSGFTYYADSVKGRFTISADTSKNTAYLQMNSLRAEDTAVYYCARDNFGGYFDYWGQGTLVTVSSASTKGPEVQLVESGGGLVQPGGSLRLSCAASGYTFTNYGMNWVRQAPGKGLEWVGWINTYTGEPTYAADFKRRFTFSLDTSKSTAYLQMNSLRAEDTAVYYCAKYPHYYGSSHWYFDVWGQGTLVTVSS
VL: DIQMTQSPSSLSASVGDRVTITCRASQDVSTAVAWYQQKPGKAPKLLIYSASFLYSGVPSRFSGSGSGTDFTLTISSLQPEDFATTYYCQQSYTGTVTFGQGTKVEIKRTVAAPDIQMTQSPSSLSASVGDRVTITCSASQDISNYLNWYQQKPGKAPKVLIYFTSSLHSGVPSRFSGSGSGTDFTLTISSLQPEDFATYYCQQYSTVPWTFGQGTKVEIKR
notes: HC vector V1 (wild-type hIgG1 constant), LC vector V2 (kappa constant); also called DVD044H; DVD044L
The molecule B6 returned an EC50 in the assay with DLL4 (DLL4 ECD/His tag) [5] of 0.53 nM.

B7: DVD257 (DLL-4 (seq. 1) and PLGF (seq. 1) DVD-Ig) (bispecific antibody, IgG1)
VH: EVQLVESGGGLVQPGGSLRLSCAASGFTFTDNWISWVRQAPGKGLEWVGYISPNSGFTYYADSVKGRFTISADTSKNTAYLQMNSLRAEDTAVYYCARDNFGGYFDYWGQGTLVTVSSASTKGPQVQLQQSGAELVKPGASVKISCKASGYTFTDYYINWVKLAPGQGLEWIGWIYPGSGNTKYNEKFKGKATLTIDTSSSTAYMQLSSLTSEDTAVYFCVRDSPFFDYWGQGTLLTVSS
VL: DIQMTQSPSSLSASVGDRVTITCRASQDVSTAVAWYQQKPGKAPKLLIYSASFLYSGVPSRFSGSGSGTDFTLTISSLQPEDFATTYYCQQSYTGTVTFGQGTKVEIKRTVAAPDIVLTQSPDSLAVSLGERVTMNCKSSQSLLNSGMRKSFLAWYQQKPGQSPKLLIYWASTRESGVPDRFTGSGSGTDFTLTISSVQAEDVAVYYCKQSYHLFTFGSGTKLEIKR
notes: Outer AB015, inner AB047; HC vector V1 (wild-type hIgG1 constant), LC vector V2 (kappa constant); also called 7H; VD257L
B7: the EC50 with PlGF (Placental GF) [3] was found to be 2 nM; with DLL4 (DLL4 ECD/His tag) [5], 0.28 nM.

B8: DVD043 (VEGF (seq. 1) and DLL4 (seq. 1) DVD-Ig) (bispecific antibody, IgG1)
VH: EVQLVESGGGLVQPGGSLRLSCAASGYTFTNYGMNWVRQAPGKGLEWVGWINTYTGEPTYAADFKRRFTFSLDTSKSTAYLQMNSLRAEDTAVYYCAKYPHYYGSSHWYFDVWGQGTLVTVSSASTKGPEVQLVESGGGLVQPGGSLRLSCAASGFTFTDNWISWVRQAPGKGLEWVGYISPNSGFTYYADSVKGRFTISADTSKNTAYLQMNSLRAEDTAVYYCARDNFGGYFDYWGQGTLVTVSS
VL: DIQMTQSPSSLSASVGDRVTITCSASQDISNYLNWYQQKPGKAPKVLIYFTSSLHSGVPSRFSGSGSGTDFTLTISSLQPEDFATYYCQQYSTVPWTFGQGTKVEIKRTVAAPDIQMTQSPSSLSASVGDRVTITCRASQDVSTAVAWYQQKPGKAPKLLIYSASFLYSGVPSRFSGSGSGTDFTLTISSLQPEDFATTYYCQQSYTGTVTFGQGTKVEIKR
notes: HC vector V1 (wild-type hIgG1 constant), LC vector V2 (kappa constant); also called DVD043H; DVD043L
B8 gave an EC50 in the assay with DLL4 (DLL4 ECD/His tag) [6] of 2.12 nM.

B9: DVD046 (HGF (seq. 1) and VEGF (seq. 1) DVD-Ig) (bispecific antibody, IgG1)
VH: QVQLVESGGGLVKPGGSLRLSCAASGFTFSDYYMSWIRQAPGKGLEWVSYISSSGSTIYYADSVKGRFTISRDNAKNSLYLQMNSLRAEDTAVYYCARDEYNSGWYVLFDYWGQGTLVTVSSASTKGPEVQLVESGGGLVQPGGSLRLSCAASGYTFTNYGMNWVRQAPGKGLEWVGWINTYTGEPTYAADFKRRFTFSLDTSKSTAYLQMNSLRAEDTAVYYCAKYPHYYGSSHWYFDVWGQGTLVTVSS
VL: DIQMTQSPSSVSASVGDRVTITCRASQGISSWLAWYQQKPGKAPNLLIYEASSLQSGVPSRFGGSGSGTDFTLTISSLQPEDFATYYCQQANGFPWTFGQGTKVEIKRTVAAPDIQMTQSPSSLSASVGDRVTITCSASQDISNYLNWYQQKPGKAPKVLIYFTSSLHSGVPSRFSGSGSGTDFTLTISSLQPEDFATYYCQQYSTVPWTFGQGTKVEIKR
notes: HC vector V1 (wild-type hIgG1 constant), LC vector V2 (kappa constant); also called DVD046L
B9 returned an EC50 with HGF (HGF-His tag) of 0.5 nM.

B10: DVD047 (VEGF (seq. 1) and RON (seq. 1) DVD-Ig) (bispecific antibody, IgG1)
VH: EVQLVESGGGLVQPGGSLRLSCAASGYTFTNYGMNWVRQAPGKGLEWVGWINTYTGEPTYAADFKRRFTFSLDTSKSTAYLQMNSLRAEDTAVYYCAKYPHYYGSSHWYFDVWGQGTLVTVSSASTKGPEVQLVQSGGGLVKPGGSLRLSCAASGFTFSSYAMHWVRQAPGKGLEWVAVISYDGSNKYYADSVKGRFTISRDNSKNTLYLQMNSLRAEDTAVYYCARFSGWPNNYYYYGMDVWGQGTTVTVSS
VL: DIQMTQSPSSLSASVGDRVTITCSASQDISNYLNWYQQKPGKAPKVLIYFTSSLHSGVPSRFSGSGSGTDFTLTISSLQPEDFATYYCQQYSTVPWTFGQGTKVEIKRTVAAPDVVMTQSPLSLPVTPGEPASISCRSSQSLLHSNGFNYVDWYLQKPGQSPHLLIYFGSYRASGVPDRFSGSGSGTDFTLKISRVEAEDVGVYYCMQALQTPPWTFGQGTKVEIRR
notes: HC vector V1 (wild-type hIgG1 constant), LC vector V2 (kappa constant); also called DVD047H; DVD047L
Regarding B10, in assay [1], the EC50 was found to be 94.8 nM.

B11: DVD258 (PLGF (seq. 1) and DLL-4 (seq. 1) DVD-Ig) (bispecific antibody, IgG1)
VH: QVQLQQSGAELVKPGASVKISCKASGYTFTDYYINWVKLAPGQGLEWIGWIYPGSGNTKYNEKFKGKATLTIDTSSSTAYMQLSSLTSEDTAVYFCVRDSPFFDYWGQGTLLTVSSASTKGPEVQLVESGGGLVQPGGSLRLSCAASGFTFTDNWISWVRQAPGKGLEWVGYISPNSGFTYYADSVKGRFTISADTSKNTAYLQMNSLRAEDTAVYYCARDNFGGYFDYWGQGTLVTVSS
VL: DIVLTQSPDSLAVSLGERVTMNCKSSQSLLNSGMRKSFLAWYQQKPGQSPKLLIYWASTRESGVPDRFTGSGSGTDFTLTISSVQAEDVAVYYCKQSYHLFTFGSGTKLEIKRTVAAPDIQMTQSPSSLSASVGDRVTITCRASQDVSTAVAWYQQKPGKAPKLLIYSASFLYSGVPSRFSGSGSGTDFTLTISSLQPEDFATTYYCQQSYTGTVTFGQGTKVEIKR
notes: Outer AB047, inner AB015; HC vector V1 (wild-type hIgG1 constant), LC vector V2 (kappa constant); also called VD258H; VD258L
Consider B11, for which the results for the half-maximal effective concentration (EC50) in the assay with DLL4 (DLL4 ECD/His tag) [6] and with PlGF (Placental GF) [4] were 2.3 nM and 0.08 nM, respectively.
